In article PMC6547806:

Molecular target: Angiomotin (Amot80) coiled-coil homology (ACCH) domain, wild type
Experiment: SEC

stoichiometry N: 4
Substance: Angiomotin (Amot80) coiled-coil homology (ACCH) domain, wild type (domain or fragment)
